The experiment addresses FLT3 (human) (UniProt P36888). As to the kind of experiment: cell-based or functional assay.
UniProt P36888, sequence (P36888 27-993): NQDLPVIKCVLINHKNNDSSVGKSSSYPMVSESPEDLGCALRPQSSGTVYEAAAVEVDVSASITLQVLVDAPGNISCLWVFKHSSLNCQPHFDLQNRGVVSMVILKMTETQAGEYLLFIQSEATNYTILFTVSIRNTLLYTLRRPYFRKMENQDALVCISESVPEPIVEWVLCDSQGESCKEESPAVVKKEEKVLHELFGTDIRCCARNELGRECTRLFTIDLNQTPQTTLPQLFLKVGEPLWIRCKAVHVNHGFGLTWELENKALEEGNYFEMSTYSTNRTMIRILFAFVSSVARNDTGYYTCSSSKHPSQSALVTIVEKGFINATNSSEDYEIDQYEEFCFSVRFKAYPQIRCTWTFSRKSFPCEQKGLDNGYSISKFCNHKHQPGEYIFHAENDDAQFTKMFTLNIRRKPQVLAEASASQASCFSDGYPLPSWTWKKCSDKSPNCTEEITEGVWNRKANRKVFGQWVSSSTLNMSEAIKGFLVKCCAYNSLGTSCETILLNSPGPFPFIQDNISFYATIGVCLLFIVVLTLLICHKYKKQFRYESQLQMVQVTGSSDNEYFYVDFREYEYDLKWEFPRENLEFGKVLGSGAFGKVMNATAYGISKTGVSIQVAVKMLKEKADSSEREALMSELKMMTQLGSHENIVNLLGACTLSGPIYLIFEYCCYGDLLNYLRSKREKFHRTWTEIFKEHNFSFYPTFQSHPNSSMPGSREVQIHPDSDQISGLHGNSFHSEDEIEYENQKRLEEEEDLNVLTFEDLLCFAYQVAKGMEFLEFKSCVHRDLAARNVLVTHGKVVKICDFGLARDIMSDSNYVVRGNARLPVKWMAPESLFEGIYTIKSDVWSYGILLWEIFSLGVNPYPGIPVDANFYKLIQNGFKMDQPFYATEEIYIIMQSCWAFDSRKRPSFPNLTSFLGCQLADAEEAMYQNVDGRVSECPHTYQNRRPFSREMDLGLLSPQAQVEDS

As for G7-H2B control nanoparticles, the one-hour uptake ratio was found to be 5.9%.

Regarding “FLT3L-conjugated Generation 7 (G7) PAMAM (G7-FLT3L) dendrimers (from UniProt P49771 27-181) (ligand)”, the one-hour uptake ratio is 23.6%.

The values are drawn from patent US20180119150A1.
